Data on one molecule can be found in article PMC10765524 (2023).

Holding throughout (experiment): FP
Test [1] concerns the target T1, ARPP19(S10C) labelled with Alexa Fluor 488 (ARPP19-tracer) (UniProt P56211 1-112, S10C, Alexa Fluor 488 C5 Maleimide label).
T1 sequence: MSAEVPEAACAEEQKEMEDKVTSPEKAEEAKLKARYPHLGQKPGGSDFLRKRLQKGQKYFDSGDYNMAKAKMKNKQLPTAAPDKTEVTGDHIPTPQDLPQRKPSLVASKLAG

Another test has as its target FAM_(67-120)S120C (UniProt Q96E09 67-120, S120C, Alexa Fluor 488 C5 Maleimide label).
For test [2], the target named is T2, ARPP19 S104A as used in the fluorescence polarization assay (UniProt P56211 1-112, S104A).
T2 sequence: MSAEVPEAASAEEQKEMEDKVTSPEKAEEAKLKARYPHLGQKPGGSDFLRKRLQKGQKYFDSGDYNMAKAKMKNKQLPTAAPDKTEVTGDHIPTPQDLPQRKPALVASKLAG

In test [3] the target is FAM122AID(S120C) (FAM122AID-tracer) (UniProt Q96E09 29-120, S120C, Alexa Fluor 488 C5 Maleimide label (fluorescence polarization assay)).

B1: B55 loopless (B55LL) (domain or fragment)
chain: MAGAGGGNDIQWCFSQVKGAVDDDVAEADIISTVEFNHSGELLATGDKGGRVVIFQQEQENKIQSHSRGEYNVYSTFQSHEPEFDYLKSLEIEEKINKIRWLPQKNAAQFLLSTNDKTIKLWKISNGEASPRRIFANAHTYHINSISINSDYETYLSADDLRINLWHLEITDRSFNIVDIKPANMEELTEVITAAEFHPNSCNTFVYSSSKGTIRLCDMRASALCDRHSKLFEEPEDPSNRSFFSEIISSISDVKFSHSGRYMMTRDYLSVKIWDLNMENRPVETYQVHEYLRSKLCSLYENDCIFDKFECCWNGSDSVVMTGSYNNFFRMFDRNTKRDITLEASRENNKPRTVLKPRKVCASGKRKKDEISVDSLDFNKKILHTAWHPKENIIAVATTNNLYIFQDKVN
For B1, the Kd (as a rule, the constant that tells how readily two partners part at equilibrium) came out at 323 nM in test [1], 827 nM in the test with FAM_(67-120)S120C, 326 nM in test [2] and 837 nM in test [3].
